Experimental data from US20080313749A1.

Assays:
[1] = biological target: … (SEQ ID NO:101), scaffold-bound CCR5-derived peptide 447; assay: peptide microarray ELISA, 2D7 at 1 µg/ml
[2] = biological target: … (SEQ ID NO:102), scaffold-bound CCR5-derived peptide 443; assay: peptide microarray ELISA, 2D7 at 1 µg/ml
[3] = biological target: … (SEQ ID NO:103), scaffold-bound CCR5-derived peptide 449; assay: peptide microarray ELISA, 2D7 at 1 µg/ml
[4] = biological target: … (SEQ ID NO:104), scaffold-bound CCR5-derived peptide 1160; assay: peptide microarray ELISA, 2D7 at 1 µg/ml
[5] = biological target: … (SEQ ID NO:105), scaffold-bound CCR5-derived peptide 450; assay: peptide microarray ELISA, 2D7 at 1 µg/ml
[6] = biological target: … (SEQ ID NO:106), scaffold-bound CCR5-derived peptide 702; assay: peptide microarray ELISA, 2D7 at 1 µg/ml
[7] = biological target: … (SEQ ID NO:107), scaffold-bound CCR5-derived peptide 1159; assay: peptide microarray ELISA, 2D7 at 1 µg/ml
[8] = biological target: … (SEQ ID NO:108), scaffold-bound CCR5-derived peptide 719; assay: peptide microarray ELISA, 2D7 at 1 µg/ml
[9] = biological target: … (SEQ ID NO:109), scaffold-bound CCR5-derived peptide 1158; assay: peptide microarray ELISA, 2D7 at 1 µg/ml
[10] = biological target: … (SEQ ID NO:101), scaffold-bound CCR5-derived peptide 447; assay: peptide microarray ELISA, 2D7 at 10 µg/ml
[11] = biological target: … (SEQ ID NO:102), scaffold-bound CCR5-derived peptide 443; assay: peptide microarray ELISA, 2D7 at 10 µg/ml
[12] = biological target: … (SEQ ID NO:103), scaffold-bound CCR5-derived peptide 449; assay: peptide microarray ELISA, 2D7 at 10 µg/ml
[13] = biological target: … (SEQ ID NO:104), scaffold-bound CCR5-derived peptide 1160; assay: peptide microarray ELISA, 2D7 at 10 µg/ml
[14] = biological target: … (SEQ ID NO:105), scaffold-bound CCR5-derived peptide 450; assay: peptide microarray ELISA, 2D7 at 10 µg/ml
[15] = biological target: … (SEQ ID NO:106), scaffold-bound CCR5-derived peptide 702; assay: peptide microarray ELISA, 2D7 at 10 µg/ml
[16] = biological target: … (SEQ ID NO:107), scaffold-bound CCR5-derived peptide 1159; assay: peptide microarray ELISA, 2D7 at 10 µg/ml
[17] = biological target: … (SEQ ID NO:108), scaffold-bound CCR5-derived peptide 719; assay: peptide microarray ELISA, 2D7 at 10 µg/ml
[18] = biological target: … (SEQ ID NO:109), scaffold-bound CCR5-derived peptide 1158; assay: peptide microarray ELISA, 2D7 at 10 µg/ml
[19] = biological target: … (SEQ ID NO:101), scaffold-bound CCR5-derived peptide 447; assay: peptide microarray ELISA, 2D7 at 0.1 µg/ml
[20] = biological target: … (SEQ ID NO:102), scaffold-bound CCR5-derived peptide 443; assay: peptide microarray ELISA, 2D7 at 0.1 µg/ml
[21] = biological target: … (SEQ ID NO:103), scaffold-bound CCR5-derived peptide 449; assay: peptide microarray ELISA, 2D7 at 0.1 µg/ml
[22] = biological target: … (SEQ ID NO:104), scaffold-bound CCR5-derived peptide 1160; assay: peptide microarray ELISA, 2D7 at 0.1 µg/ml
[23] = biological target: … (SEQ ID NO:105), scaffold-bound CCR5-derived peptide 450; assay: peptide microarray ELISA, 2D7 at 0.1 µg/ml
[24] = biological target: … (SEQ ID NO:106), scaffold-bound CCR5-derived peptide 702; assay: peptide microarray ELISA, 2D7 at 0.1 µg/ml
[25] = biological target: … (SEQ ID NO:107), scaffold-bound CCR5-derived peptide 1159; assay: peptide microarray ELISA, 2D7 at 0.1 µg/ml
[26] = biological target: … (SEQ ID NO:108), scaffold-bound CCR5-derived peptide 719; assay: peptide microarray ELISA, 2D7 at 0.1 µg/ml
[27] = biological target: … (SEQ ID NO:109), scaffold-bound CCR5-derived peptide 1158; assay: peptide microarray ELISA, 2D7 at 0.1 µg/ml

Sequence of … (SEQ ID NO:108), scaffold-bound CCR5-derived peptide 719 (peptide, as listed by the source): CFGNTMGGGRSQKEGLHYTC

## anti-CCR5 antibody 2D7
[1]
  microarray ELISA signal (absorbance 405 nm, CCD camera): 2710
[2]
  microarray ELISA signal (absorbance 405 nm, CCD camera): 2640
[3]
  microarray ELISA signal (absorbance 405 nm, CCD camera): 2610
[4]
  microarray ELISA signal (absorbance 405 nm, CCD camera): 2470
[5]
  microarray ELISA signal (absorbance 405 nm, CCD camera): 2360
[6]
  microarray ELISA signal (absorbance 405 nm, CCD camera): 1580
[7]
  microarray ELISA signal (absorbance 405 nm, CCD camera): 1150
[8]
  microarray ELISA signal (absorbance 405 nm, CCD camera): 678
[9]
  microarray ELISA signal (absorbance 405 nm, CCD camera): 416
[10]
  microarray ELISA signal (absorbance 405 nm, CCD camera): 2940
[11]
  microarray ELISA signal (absorbance 405 nm, CCD camera): 3090
[12]
  microarray ELISA signal (absorbance 405 nm, CCD camera): 2890
[13]
  microarray ELISA signal (absorbance 405 nm, CCD camera): 2760
[14]
  microarray ELISA signal (absorbance 405 nm, CCD camera): 2850
[15]
  microarray ELISA signal (absorbance 405 nm, CCD camera): 2790
[16]
  microarray ELISA signal (absorbance 405 nm, CCD camera): 2640
[17]
  microarray ELISA signal (absorbance 405 nm, CCD camera): 2820
[18]
  microarray ELISA signal (absorbance 405 nm, CCD camera): 2380
[19]
  microarray ELISA signal (absorbance 405 nm, CCD camera): 261
[20]
  microarray ELISA signal (absorbance 405 nm, CCD camera): 148
[21]
  microarray ELISA signal (absorbance 405 nm, CCD camera): 99
[22]
  microarray ELISA signal (absorbance 405 nm, CCD camera): 315
[23]
  microarray ELISA signal (absorbance 405 nm, CCD camera): 107
[24]
  microarray ELISA signal (absorbance 405 nm, CCD camera): 68
[25]
  microarray ELISA signal (absorbance 405 nm, CCD camera): 213
[26]
  microarray ELISA signal (absorbance 405 nm, CCD camera): 113
[27]
  microarray ELISA signal (absorbance 405 nm, CCD camera): 132
